Source: patent US20200055939A1 (Genentech, published 2020)

What was measured:
Test in all cases: SPR, Fab over captured MICA*008.mIgG2a Ala variant; KD relative to wild type
E276A = target: T1, E276A
T1 construct: % monomer 86.14; also called MICA*008.mIgG2a E276A
T1 chain: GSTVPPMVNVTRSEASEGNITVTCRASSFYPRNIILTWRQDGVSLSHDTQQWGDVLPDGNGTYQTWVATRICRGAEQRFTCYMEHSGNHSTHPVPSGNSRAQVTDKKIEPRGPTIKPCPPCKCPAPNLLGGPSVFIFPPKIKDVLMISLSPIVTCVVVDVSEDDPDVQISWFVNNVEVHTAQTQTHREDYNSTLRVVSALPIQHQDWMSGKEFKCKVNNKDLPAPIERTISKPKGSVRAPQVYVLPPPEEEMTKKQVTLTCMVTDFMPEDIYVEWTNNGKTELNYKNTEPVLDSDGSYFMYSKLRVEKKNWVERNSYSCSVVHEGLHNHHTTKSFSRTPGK

E277A = target: T2, E277A
T2 construct: % monomer 81.58; also called MICA*008.mIgG2a E277A
T2 chain: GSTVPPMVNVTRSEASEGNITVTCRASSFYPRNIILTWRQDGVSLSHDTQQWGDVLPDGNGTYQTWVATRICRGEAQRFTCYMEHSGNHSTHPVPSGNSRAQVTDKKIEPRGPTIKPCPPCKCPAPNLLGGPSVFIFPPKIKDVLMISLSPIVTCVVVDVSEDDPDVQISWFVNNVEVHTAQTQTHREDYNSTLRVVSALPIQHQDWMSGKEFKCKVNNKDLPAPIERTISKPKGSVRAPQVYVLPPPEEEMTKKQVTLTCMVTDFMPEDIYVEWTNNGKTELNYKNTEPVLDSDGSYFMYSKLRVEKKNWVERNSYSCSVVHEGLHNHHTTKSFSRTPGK

G288A = target: T3, G288A
T3 construct: % monomer 95.3; also called MICA*008.mIgG2a G288A
T3 chain: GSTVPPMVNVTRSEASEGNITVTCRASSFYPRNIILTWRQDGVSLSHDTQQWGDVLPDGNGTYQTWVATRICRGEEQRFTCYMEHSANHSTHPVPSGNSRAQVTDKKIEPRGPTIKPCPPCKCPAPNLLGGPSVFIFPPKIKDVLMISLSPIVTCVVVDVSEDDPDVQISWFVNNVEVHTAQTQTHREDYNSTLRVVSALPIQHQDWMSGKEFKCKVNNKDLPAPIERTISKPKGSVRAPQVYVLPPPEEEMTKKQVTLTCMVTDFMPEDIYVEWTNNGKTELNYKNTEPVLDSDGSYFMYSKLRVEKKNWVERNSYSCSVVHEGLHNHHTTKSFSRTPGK

S247A = target: T4, S247A
T4 construct: % monomer 94.87; also called MICA*008.mIgG2a S247A
T4 chain: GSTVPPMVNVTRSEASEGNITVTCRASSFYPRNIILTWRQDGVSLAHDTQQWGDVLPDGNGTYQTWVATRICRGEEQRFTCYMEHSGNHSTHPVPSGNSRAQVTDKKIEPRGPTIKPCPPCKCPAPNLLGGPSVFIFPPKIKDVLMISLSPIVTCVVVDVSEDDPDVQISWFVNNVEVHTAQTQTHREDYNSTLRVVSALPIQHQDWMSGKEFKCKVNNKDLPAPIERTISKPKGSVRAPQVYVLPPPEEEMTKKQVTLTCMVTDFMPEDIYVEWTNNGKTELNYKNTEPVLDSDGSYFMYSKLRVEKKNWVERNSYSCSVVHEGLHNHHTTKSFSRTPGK

R274A = target: T5, R274A
T5 construct: % monomer 94; also called MICA*008.mIgG2a R274A
T5 chain: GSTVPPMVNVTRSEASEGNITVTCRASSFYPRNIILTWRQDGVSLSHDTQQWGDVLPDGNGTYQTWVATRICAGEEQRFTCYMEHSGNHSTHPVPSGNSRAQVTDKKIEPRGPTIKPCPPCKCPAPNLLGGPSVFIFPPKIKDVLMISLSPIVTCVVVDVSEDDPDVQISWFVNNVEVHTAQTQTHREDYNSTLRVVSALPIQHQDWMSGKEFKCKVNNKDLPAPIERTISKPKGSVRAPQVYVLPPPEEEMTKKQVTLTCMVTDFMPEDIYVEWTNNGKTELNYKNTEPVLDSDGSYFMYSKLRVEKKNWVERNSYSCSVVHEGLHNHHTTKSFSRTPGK

T292A = target: T6, T292A
T6 construct: % monomer 80.56; also called MICA*008.mIgG2a T292A
T6 chain: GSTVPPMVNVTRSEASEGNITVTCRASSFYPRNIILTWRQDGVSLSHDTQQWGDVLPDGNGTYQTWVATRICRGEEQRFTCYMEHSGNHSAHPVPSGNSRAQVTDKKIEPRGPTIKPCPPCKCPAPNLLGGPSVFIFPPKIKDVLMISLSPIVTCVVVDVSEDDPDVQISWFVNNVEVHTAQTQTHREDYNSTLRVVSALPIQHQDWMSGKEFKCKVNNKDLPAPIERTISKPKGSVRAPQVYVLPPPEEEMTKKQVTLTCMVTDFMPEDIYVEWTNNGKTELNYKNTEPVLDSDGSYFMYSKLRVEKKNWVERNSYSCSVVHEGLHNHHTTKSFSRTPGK

D249A = target: T7, D249A
T7 construct: % monomer 86.64; also called MICA*008.mIgG2a D249A
T7 chain: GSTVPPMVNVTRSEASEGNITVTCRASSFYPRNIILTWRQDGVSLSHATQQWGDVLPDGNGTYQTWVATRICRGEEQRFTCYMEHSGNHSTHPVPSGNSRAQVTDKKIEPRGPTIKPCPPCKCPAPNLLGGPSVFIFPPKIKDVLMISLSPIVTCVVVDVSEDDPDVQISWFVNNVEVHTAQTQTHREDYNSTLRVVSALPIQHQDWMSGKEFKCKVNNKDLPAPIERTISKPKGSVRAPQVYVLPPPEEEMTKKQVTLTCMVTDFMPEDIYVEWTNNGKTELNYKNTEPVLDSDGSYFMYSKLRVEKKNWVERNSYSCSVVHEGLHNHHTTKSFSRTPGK

B1: 1D5 Fab (Fab, V domains shown)
VH: EIQLQQSGPELVKPGASVKVSCKASGYAFTSQNIYWVKQSHGKSLEWIGYIEPYNVVPMYNPKFKGKATLTVDKSSSSAYIHLNSLTSEDSAIYYCARSGSSNFDYWGQGTTLTVSS
VL: EIILTQSPTTMAASPGEKITITCSASSSISSHYLHWYQQKSGFSPKLLIYRTSNLASGVPARFSGSGSGTSYSLTIGTMEAEDVATYYCQQGSSLPLTFGAGTKVEIK
notes: Expressed in E. coli as chimera of murine variable and human constant domains; not shown: human IgG1 CH1 constant domain; human kappa CL constant domain
Q: B1 was tested. Which fold-decrease in affinity (E276A) did it give?
A: 22

Q: And the fold-decrease in affinity (E277A)?
A: 1.9

Q: And the fold-decrease in affinity (G288A)?
A: 1

Q: What about the fold-decrease in affinity (S247A) of the same binder?
A: 0.2

B2: 2E5.2.3 Fab (Fab, V domains shown)
VH: QGQMQQSGAELVKPGASVKLSCKTSGFTFSDNYISWLKQKPGQSLEWIAWIYAGTGGTSYNQKFTAKAQLTVDTSSSTAYMQFSSLTTEDSAIYYCARHDYYGTSGAWFAYWGQGTLVTVSA
VL: DVLMTQTPLSLPVSLGDQASLSCRSSQNIVHINGNTYLEWYLQKPGQSPKLLIYKVSNRFSGVPDRFSGSGSGTDFTLKISRVEAEDLGVYYCFQGSHVPWTFGGGTKVEIK
Q: What does the source list for B2?
A: fold-decrease in affinity (R274A): 1.1; fold-decrease in affinity (E276A): 1.2; fold-decrease in affinity (E277A): 1.1; fold-decrease in affinity (G288A): 0.6; fold-decrease in affinity (T292A): 1.3; fold-decrease in affinity (S247A): 1.1; fold-decrease in affinity (D249A): 1

B3: 6F8.7 Fab (Fab, V domains shown)
VH: DVQLQGSGPGLVKPSQSLSLTCSVTGYSITNDYYWNWIRQFPGNKLEWMGFISFGGSNNYNPSLKNRISITRDTSKNQFFLKLSSVTTEDTATYYCARYDGRGAWFAYWAQGTLVTVSA
VL: DIQMTQSPASLSASVGETVTITCRASGNIHNYLAWYQQKQGKSPQLLVYDAITLADGVPSRFSGSGSGTQYSLKINSLQPEDFGNYYCQHFWSFPLTFGAGTKVEIK
Q: With B3 as the binder, how does the fold-decrease in affinity (R274A) read?
A: 1

Q: What about the fold-decrease in affinity (E276A) of the same binder?
A: 4.3

Q: What about the fold-decrease in affinity (E277A) of the same binder?
A: 2.7

Q: And the fold-decrease in affinity (G288A)?
A: 1

Q: What about the fold-decrease in affinity (T292A) of the same binder?
A: 1.7

Q: And the fold-decrease in affinity (S247A)?
A: 0.9

Q: And the fold-decrease in affinity (D249A)?
A: 0.8

B4: 7D4.6 Fab (Fab, V domains shown)
VH: DVQLQESGPGLVKPSQSLSLTCTVTGYSITSDYAWNWIRQFPRNKLEWMGYINYSGTTNYNPSLKSRISITRDTSKNQFFLQLISVTTEDTATYYCSYYRYDGAWFPYWGQGTLVTVSA
VL: DIQMTQSPASLSASVGETVTITCRASGNIHNYLAWYQQKQGKSPQLLVYNAIMLADGVPSRFSASGSGTQYSLKINSLQPEDFGSYYCQHFWSFPLTFGAGTKVEIK
Q: Which results are given for B4?
A: fold-decrease in affinity (R274A): 0.9; fold-decrease in affinity (E276A): 0.7; fold-decrease in affinity (E277A): 1.3; fold-decrease in affinity (G288A): 0.8; fold-decrease in affinity (T292A): 2.1; fold-decrease in affinity (S247A): 0.8; fold-decrease in affinity (D249A): 0.7
